In the data set the target is Cdx4 F170L (kggtl240) (Danio rerio, UniProt A8KBT9 A8KBT9:1-270, F170L). The data set can be described thus: EMSA; mutation prevents binding to cdx4 consensus site. The note with it: tags: TNT SP6 IVT (Promega). On the technique in general: In EMSA bound probe runs differently from free probe, usually more slowly.

The values below come from patent publication US20090004163, “METHOD OF ENHANCING PROLIFERATION AND/OR HEMATOPOIETIC DIFFERENTIATION OF STEM CELLS” (THE CHILDREN'S MEDICAL CENTER CORPORATION, published 2009).

Sequence of Cdx4 F170L (kggtl240) (A8KBT9 entry or part of it F170L | F170L F170L, one chain of several): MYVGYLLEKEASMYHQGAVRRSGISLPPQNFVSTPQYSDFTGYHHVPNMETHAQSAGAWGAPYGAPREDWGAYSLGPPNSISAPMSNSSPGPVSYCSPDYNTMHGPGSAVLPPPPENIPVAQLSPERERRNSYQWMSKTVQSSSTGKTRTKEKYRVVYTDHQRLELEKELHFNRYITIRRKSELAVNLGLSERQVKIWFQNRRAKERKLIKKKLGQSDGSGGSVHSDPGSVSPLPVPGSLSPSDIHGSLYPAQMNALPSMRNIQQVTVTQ

B1: consensus cdx binding site probe (dsDNA)
DNA 1: GAGAAATTTATATTGT
DNA 2: ACAATATAAATTTCTC
As to B1, the binding result is given as “no binding”.
